This test deals with T1, CD81 (UniProt P60033).
T1 sequence (looked up): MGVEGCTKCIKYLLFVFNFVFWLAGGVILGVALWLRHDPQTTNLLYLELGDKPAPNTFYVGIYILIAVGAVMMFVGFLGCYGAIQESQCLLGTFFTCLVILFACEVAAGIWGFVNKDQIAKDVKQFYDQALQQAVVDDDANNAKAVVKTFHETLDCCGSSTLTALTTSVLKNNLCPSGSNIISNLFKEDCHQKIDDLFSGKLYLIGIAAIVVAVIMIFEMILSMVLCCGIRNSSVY
In words: cell ELISA.

Residue numbers refer to the chain shown, from its start.

B1: CD81K04 HC GG-05-hVH_1_18 / LC JA_GG-10-hVK_4_1 (antibody, V domains shown)
VH: QVQLVQSGAEVKKPGASVKVSCKASGYTFSSSWMNWVRQAPGQGLEWMGRIYSGDGDAIYAQKLQGRVTMTTDTSTSTAYMELRSLRSDDTAVYYCAREGKTGDLLLRSWGQGTLVTVSS
VL: DIVMTQSPDSLAVSLGERATINCRASKSVSTSIYSYMHWYQQKPGQPPKLLIKYASYLESGVPDRFSGSGSGTDFTLTISSLQAEDVAVYYCEHSREFPFTFGQGTKLEIK
As for B1, the ELISA absorbance is 0.841.

B2: CD81K04 HC JA_GG-14-hVH_1_69 / LC GG-04-hVK_4_1 (antibody, V domains shown)
VH: QVQLVQSGAEVKKPGSSVKVSCKASGYTFSSSWMNWVRQAPGQGLEWMGRIYSGDGDAIYNGKFKGKATITADESTSTAYMELSSLRSEDTAVYYCAREGKTGDLLLRSWGQGTLVTVSS
VL: B1 VL with R24K, A25S, M37L, H38A, K53Y, Y57T, L58R, E93Q, F100Y
As to B2, the ELISA absorbance stood at 0.107.

B3: CD81K13 HC 04-hVH_1_69 / LC 05-hVK_1_39 (antibody, V domains shown)
VH: EVQLVESGGGLVQPGRSLRLSCTASGFNFKDSYLHWVRQAPGQGLEWMGRIDTGNGNVKFDPKFQGRVTITADESTSTAYMELSSLRSEDTAVYYCVPYGYGFHSWGQGTLVTVSS
VL: DIQMTQSPSSLSASVGDRVTITCRASENIYRTLAWYQQKPGKAPKLLIYAATTLASGVPSRFSGSGSGTDFTLTISSLQPEDFATYYCQHFWGTPWTFGQGTKVEIK
For the molecule B3, the ELISA absorbance is 0.776.

B4: CD81K13 HC 04-hVH_1_69 / LC 5b-hVK_1_39 (antibody, V domains shown)
VH: B3 VH
VL: B3 VL with A50G, S56D
The molecule B4 came in with an ELISA absorbance of 0.428.

B5: CD81K13 HC 04-hVH_1_69 / LC 5b-hVK_1_39-GA (antibody, V domains shown)
VH: B3 VH
VL: B3 VL with A50G, S56D
Molecule B5 gave an ELISA absorbance of 0.403.

B6: CD81K13 HC 04-hVH_1_69 / LC 07-hVK_1_27 (antibody, V domains shown)
VH: B3 VH
VL: B3 VL with A43V, F83V, A84G, H90K
In turn, B6 yielded an ELISA absorbance of 0.085.

B7: CD81K13 HC 04-hVH_1_69 / LC 06-hVK_1_39 (antibody, V domains shown)
VH: B3 VH
VL: B3 VL with A84G
B7: the ELISA absorbance amounted to 0.386.

B8: CD81K04 HC JA_GG-14-hVH_1_69 / LC JA_GG-07-hVK_7_3 (antibody, V domains shown)
VH: B2 VH
VL: DIVLTQSPASLAVSPGQRATITCRASKSVSTSIYSYMHWYQQKPGQPPKLLIKYASNKDTGVPARFSGSGSGTDFTLTINPVEANDAANYYCLHSREFPYTFGQGTKLEIK
In turn, B8 gave an ELISA absorbance of 0.107.

The values above are taken from patent US20170204182A1.
